Results as given in paper PMC6838055, “Effective genome editing and identification of a regiospecific gallic acid 4-O-glycosyltransferase in pomegranate (Punica granatum L.)” (Horticulture Research, 2019).

Substrate: O=C(O)c1cc(O)c(O)c(O)c1
Assay: HPLC product assay, steady-state kinetics
Format: biochemical, Punica granatum
Settings: UDP-glucose co-substrate (0.6 mM in standard assay), 50 mM MES pH 5.5, 3 mM 2-mercaptoethanol, 30 °C, gallic acid 30-500 μM

B1: PgUGT72BD1 (Punica granatum) (protein)
chain: MAQVSTKPHVALFASPGIGHLIPVLQLGERFVSRHNFVVTVFVVVTDAATAESQLKQQSSYKNLLNVVLLPPVDLTSLTNKPLAILSQLVLIVRQSLPDLRSAIASMKSRPTALIVDLFGTEAFAIADEFHMLKYEFFTTNAWFLALTLYAPHVDREHEDDHILRHMPLHIPGCASILYEDTVDVYTDRNDKLLHDDYVRIGRRLAEADGILINTWESLEPKTLQALRDPKAFGRFSQVRILPIGPLVSGFQSFGSSQPKDDILQWLDDQPTESVLYVSFGSGGTLSADQLTELAWGLEQSQHRFIWVVRPPQENSACGAYFEQAKRADGTPEYLPDGFVTRTQKLGLVVPMWAPQREILAHPSIGGFLSHCGWNSTLESLINGVPLIAWPLYAEQTMNATMLTDQLGIAARSRELMPNGVLGRHEIEKMVRTVMNKEDAKGETIRARSQDLKRTALLAVAEGGSSYAALSQVAQECKIGLVGLKQRARGA
notes: codon-optimized ORF in pET28a, His-tagged, E. coli BL21(DE3), Ni-NTA purified; no signal peptide detected
With B1 the Km was 190 ± 70 µM and the kcat was “(2.83 ± 0.5) × 10^−3 s^−1”.
